For assay [1], the target named is SIY peptide on H-2Kb (mouse). As to the kind of experiment: value stated for 2C in the legend of FIG. 16, no measurement described; given for scTv and full-length constructs alike.
The target of assay [2] is SIY peptide on H-2Kb (mouse). As to the kind of experiment: value cited from Chervin et al. 2009 (ref 18); not measured in this filing.
In assay [3] the target is SIY peptide on H-2Kb (mouse). As to the kind of experiment: value stated for m33 in the legend of FIG. 16, no measurement described; given for scTv and full-length constructs alike.

Here are results for 2 substances from US10464987B2.

The term Kd denotes the equilibrium constant for the complex coming apart. A lower Kd goes with tighter binding.

In the case of 2C full-length TCR, in assay [1], the Kd was 30000 nM.

As for m33 full-length TCR, the values for the Kd in assay [2] and in assay [3] were 16 nM and 30 nM, respectively.
